Target: UBE2A (UniProt P49459 1-152)
Assay: ITC

Kd: 1.47 µM
B1: UBR4_(xtal) Ser4930Arg (domain or fragment)
chain: AIQHPGTQVLIGTDSIPNLHKLEQVSSDEGIGTLAENLLEALREHPDVNKKIDAARRETRAEKKRMAMAMRQKALGTLGMTTNEKGQVVTKTALLKQMEELIEEPGLTCCICREGYKFQPTKVLGIYTFTKRVALEEMENKPRKQQGYSTVSHFNIVHYDCHLAAVRLARGREEWESAALQNANTKCNGLLPVWGPHVPERAFATCLARHNTYLQECTGQREPTYQLNIHDIKLLFLRFAMEQSFSADTGGGGRESNIHLIPYIIHTVLYVLNTTRATSREEKNLQGFLEQPKEKWVESAFEVDGPYYFTVLALHILPPEQWRATRVEILRRLLVTSQARAVAPGGATRLTDKAVKDYSAYRSSLLFWALVDLIYNMFKKVPTSNTEGGWSCSLAEYIRHNDMPIYEAADKALKTFQEEFMPVETFSEFLDVAGLLSEITDPESFLKDLLNSVP
